Measured values as given in US5318897.

B1: monoclonal antibody c23.5 (IgG2a, kappa) (antibody, V domains shown)
VH: EVQLQESGGGLVKPGGSLKLSCAASGFTFSIYGMSWFRQTPEKRLEWVATISGGDTYTYYPDSVKGRFTISRDNAKNNLFLQMSSLRSEDTALYFCGRGIAYWGQGTLVTVSA
VL: DIVLTQSPASQSASLGESVTITCLASQTIGTWLPWYQQKLGKSPQLLIYAATSLADGVPSRFSGSGSATKFSFKISSLQAEDFVSYNCQHLYSTPLTFGGGTKL

How the values were obtained:
Z-R-R-MCA = biological target: T1, Z-R-R-MCA
T1 sequence (peptide, N-terminal Z; C-terminal methylcoumarinamide (MCA)): RR

Boc-L-R-R-MCA = biological target: T2, Boc-L-R-R-MCA
T2 sequence (peptide, N-terminal Boc; C-terminal methylcoumarinamide (MCA)): LRR

[1] = biological target: T3, vasoactive intestinal peptide (VIP)
T3 sequence (peptide, C-terminal amide (--CO--NH2)): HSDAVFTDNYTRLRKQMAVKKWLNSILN

[2] = biological target: T3, vasoactive intestinal peptide (VIP); assay: binding studies under conditions that did not permit VIP hydrolysis (high ionic strength)

Molecule | fluorescence of the leaving group methylcoumarinamide (Z-R-R-MCA) | fluorescence of the leaving group methylcoumarinamide (Boc-L-R-R-MCA) | fluorescence of the leaving group methylcoumarinamide (P-F-R-MCA) [units] | Km [1] [nM] | kcat [1] [s⁻¹] | Kd [2] [nM]
bovine pancreatic trypsin (from UniProt P00760) (enzyme) | 179 units | 263 units | 194 | – | – | –
B1 | < 1 unit | < 1 unit | – | 2 | 1.33e-06 | 3.4
